Experimental data reported in patent US20040014178A1 (published 2004).

Tests used:
[1] = target: T1, human recombinant von Willebrand factor (human, UniProt P04275 764-2813); assay: phagemid clone isolated by panning the S. lugdunensis library against vWF
T1 construct: also called rvWf; rvWF

[2] = target: T1, human recombinant von Willebrand factor; assay: blot of vWb on nitrocellulose probed with 125I-labelled vWF

B1: phagemid clone SlvW2 (vWbl fragment displayed on phagemid particles) (other)
chain: GNEVQETEEGTHDAPGIIGDKWQYTGQTTTEDGITTHIYQRIQSEIPNEAPQETPVALEVTRYVDSEGN
binding result [1]: binds

B2: vWb (von Willebrand factor binding protein) from S. aureus, wild type secreted protein (other)
chain: VVSGEKNPYVSESLKLTNNKNKSRTVEEYKKSLDDLIWSFPNLDNERFDNPEYKEAMKKYQQRFMAEDEALKKFFSEEKKIKNGNTDNLDYLGLSHERYESVFNTLKKQSEEFLKEIEDIKKDNPELKDFNEEEQLKCDLELNKLENQILMLGKTFYQNYRDDVESLYSKLDLIMGYKDEERANKKAVNKRMLENKKEDLETIIDEFFSDIDKTRPNNIPVLEDEKQEEKNHKNMAQLKSDTEAAKSDESKRSKRSKRSLNTQNHKPASQEVSEQQKAEYDKRAEERKARFLDNQKIKKTPVVSLEYDFEHKQRIDNENDKKLVVSAPTKKPTSPTTYTETTTQVPMPTVERQTQQQIIYNAPKQLAGLNGESHDFTTTHQSPTTSNHTHNNVVEFEETSALPGRKSGSLVGISQIDSSHLTEREKRVIKREHVREAQKLVDNYKDTHSYKDRINAQQKVNTLSEGHQKRFNKQINKVYNGK
notes: Purified from the culture supernatant of S. aureus Newman with the Eap gene deleted; also called wild type vWb; purified secreted vWb protein
binding result [2]: binds
